Positions of bridges follow the written chain, without caps; N, C: chain ends. No end group written: not given here. *: point of attachment. NHNH2 = NN*
Target: T1, REFACTO® (Homo sapiens, UniProt P00451)
T1 construct: amino acids 1-743 and 1638 through 2332 of human factor VIII; purchased Genetics Institute, Inc. (Cambridge, Mass.)
T1 sequence (P00451 20-762): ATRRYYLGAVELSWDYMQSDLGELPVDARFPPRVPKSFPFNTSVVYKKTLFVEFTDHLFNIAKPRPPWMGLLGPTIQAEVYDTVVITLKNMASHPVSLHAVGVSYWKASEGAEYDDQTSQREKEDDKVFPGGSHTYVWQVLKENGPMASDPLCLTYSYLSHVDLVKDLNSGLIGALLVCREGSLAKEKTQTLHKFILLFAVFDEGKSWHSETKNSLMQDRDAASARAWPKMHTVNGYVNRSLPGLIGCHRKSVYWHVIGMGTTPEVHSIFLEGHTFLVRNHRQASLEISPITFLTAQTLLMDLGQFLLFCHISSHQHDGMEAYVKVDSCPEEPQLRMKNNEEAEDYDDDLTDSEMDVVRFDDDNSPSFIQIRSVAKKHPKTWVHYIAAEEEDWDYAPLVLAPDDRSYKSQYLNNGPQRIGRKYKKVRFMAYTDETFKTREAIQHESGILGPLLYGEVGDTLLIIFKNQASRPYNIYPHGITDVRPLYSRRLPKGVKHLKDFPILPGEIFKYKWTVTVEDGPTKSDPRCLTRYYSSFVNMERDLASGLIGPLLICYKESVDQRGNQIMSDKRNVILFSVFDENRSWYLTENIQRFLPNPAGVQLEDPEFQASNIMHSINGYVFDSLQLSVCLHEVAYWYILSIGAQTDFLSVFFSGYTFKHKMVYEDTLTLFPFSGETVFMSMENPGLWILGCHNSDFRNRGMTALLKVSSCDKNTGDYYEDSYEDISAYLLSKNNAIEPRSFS
T1 sequence (P00451 1657-2351): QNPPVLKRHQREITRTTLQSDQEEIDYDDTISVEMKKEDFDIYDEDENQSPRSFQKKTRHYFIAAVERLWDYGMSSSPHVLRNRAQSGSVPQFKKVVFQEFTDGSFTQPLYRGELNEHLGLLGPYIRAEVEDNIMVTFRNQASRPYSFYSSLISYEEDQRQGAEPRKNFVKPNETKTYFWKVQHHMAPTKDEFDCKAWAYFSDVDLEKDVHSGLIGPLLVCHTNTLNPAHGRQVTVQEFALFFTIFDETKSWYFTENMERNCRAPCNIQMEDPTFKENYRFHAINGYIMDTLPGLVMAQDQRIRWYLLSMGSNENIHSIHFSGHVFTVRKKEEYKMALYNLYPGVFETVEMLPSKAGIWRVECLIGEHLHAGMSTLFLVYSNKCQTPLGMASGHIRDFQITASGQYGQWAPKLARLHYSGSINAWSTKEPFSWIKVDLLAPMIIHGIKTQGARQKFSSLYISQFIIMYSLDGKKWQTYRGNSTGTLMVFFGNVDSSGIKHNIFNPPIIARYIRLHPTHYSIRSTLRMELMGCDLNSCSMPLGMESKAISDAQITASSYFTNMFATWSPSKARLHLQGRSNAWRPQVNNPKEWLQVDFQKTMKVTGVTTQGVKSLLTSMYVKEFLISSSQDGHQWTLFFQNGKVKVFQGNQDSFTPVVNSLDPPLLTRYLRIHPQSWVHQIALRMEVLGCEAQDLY
Assay: Batch binding and elution of REFACTO® with immobilized polypeptide ligands (factor VIII sandwich ELISA)
Details: for % of Input Recovered in: Eluate: Buffer A, 50% ethylene glycol, pH 6.3, 15 minutes; for % of Input Recovered in: Unbound: REFACTO® ~50 U in Buffer 1, 1 h RT, supernatant after binding; for % of Input Recovered in: Total: Unbound, Wash and Eluate fractions together; for % of Input Recovered in: Wash: one wash with Buffer 1
Source text: A commercial ELISA kit (IMUBIND fVIII ELISA kit, Product #884, American, Inc., Greenwich, Conn.) developed to detect factor VIII was used according to the manufacturer's specifications in order to detect both the REFACTO® and the nhfVIII targets. The kit employs a sandwich ELISA assay in which the target is captured by an immobilized monoclonal antibody and the captured target is detected with a second monoclonal antibody-horseradish peroxidase (HRP) conjugate. Addition of the peroxidase substrate and its subsequent reaction with the HRP produces a blue color (detected at 630 nm) which changes to yellow (detected at 450 nm) on addition of the 0.5N sulfuric acid stop solution. Color response is calibrated with factor VIII standards provided by the manufacturer.
REFACTO® binding was tested in Buffer 1. The binding of both REFACTO® and nfhVIII were tested using three affinity resins prepared as in Example II, using the affinity peptides CS-454, CS-456, and CS-458 immobilized on Toyopearl Formyl 650-M medium. Ligand density for each polypeptide was 1.79 mg/ml (0.67 μmol/ml), 3.69 mg/ml ([…]) and 3.15 mg/ml (1.17 μmol/ml) respectively.
For each of the three immobilized peptides tested, peptide-beads from […] of a 50% slurry of Toyopearl-coupled polypeptide suspension were centrifuged briefly (30 seconds at 2000×g at room temperature), the supernatant fluid was removed, and the beads (pellets) were washed two times. For each wash, the beads were resuspended in 500 μl of Buffer 1 and centrifuged as before.
The stock solution of REFACTO® was diluted to a final concentration of 200 U/ml in Buffer 1 and 250 μl of the diluted solution (˜50 U total) was added to a washed pellet of each of the peptide-beads. The suspension was incubated on an end-over-end mixer at RT for one hour, after which binding period the beads were pelleted by centrifugation (30 seconds, 2000×g) and the supernatant solutions, representing the unbound fraction (“Unbound” in Table 7, below), were removed and retained for assay of unbound factor VIII activity.
The pelleted beads were washed one time by adding 250 μl of Buffer 1, mixed briefly and the suspension centrifuged as before. The supernatant solutions (“Wash” in Table 7) were removed and retained for assay of factor VIII activity.
The washed pellets were resuspended in 250 μl of Buffer A (20 mM L-Histidine-HCl, 250 mM NaCl, 20 mM CaCl2, 0.01% Tween 80, 50% ethylene glycol, pH 6.3) and incubated on an end-over-end mixer for 15 minutes at room temperature. At the end of the elution period, the suspensions were centrifuged as above. The supernatant solutions (“Eluate” in Table 7) were removed and retained for assay of eluted factor VIII activity.
The starting (diluted) REFACTO® solution (Input) and each sample (Unbound, Wash, and Eluate) taken as described above were diluted 1:1400 in Assay Diluent (provided with kit), then subjected to ELISA using the commercial factor VIII assay kit.

% of Input Recovered in: Eluate	% of Input Recovered in: Unbound	% of Input Recovered in: Total	Substance	% of Input Recovered in: Wash
47%	20%	76%	AEGTGDFCWVFAFDHCHDPGPEGGGS-NHNH2 (disulfide 8-16 (inferred)) [CS-458]	10%
49%	24%	85%	AEGTGDHLCGAWFRPCDADPGPEGGGS-NHNH2 (disulfide 9-16 (inferred)) [CS-454]	

Substance	% of Input Recovered in: Eluate	% of Input Recovered in: Unbound	% of Input Recovered in: Total	% of Input Recovered in: Wash
AEGTGDFGCSWLFPCPFDPGPEGGGS-NHNH2 (disulfide 9-15 (inferred)) [CS-456]	24%	47%	91%	20%

— patent publication US9156883B2, “Binding molecules for human factor VIII and factor VIII-like proteins” (DYAX CORP., priority 1999, dated 2015)
